Reference: patent publication US20150299281A1 (ZEALAND PHARMA A S, published 2015)
Numbered stars: 1 amine (or outer) side, 2 acyl side, 3 side chain; on linkers, the order of the positions; unused ones are H or OH. Square brackets hold non-standard residues; d marks the D form. Side chains are listed from the residue outwards. * marks the point of attachment. C16 diacid = O=C(O)CCCCCCCCCCCCCCC(=O)*; γGlu = O=C(O)[C@H](CCC(=O)[*:2])N[*:1]; 1Nal = N[C@@H](Cc1cccc2ccccc12)C(=O)O; Palmitoyl = CCCCCCCCCCCCCCCC(=O)*; Aib = CC(C)(N)C(=O)O

B1: Compound 32 (peptide)
peptide: H-Y[Aib]EGTFTSDYSI[Aib]LDKK([γGlu-Palmitoyl])AQRAFVEWLLAQGPSSGAPPPS-NH2
SMILES: CCCCCCCCCCCCCCCC(=O)N[C@@H](CCC(=O)NCCCC[C@H](NC(=O)[C@H](CCCCN)NC(=O)[C@H](CC(=O)O)NC(=O)[C@H](CC(C)C)NC(=O)C(C)(C)NC(=O)[C@@H](NC(=O)[C@H](CO)NC(=O)[C@H](Cc1ccc(O)cc1)NC(=O)[C@H](CC(=O)O)NC(=O)[C@H](CO)NC(=O)[C@@H](NC(=O)[C@H](Cc1ccccc1)NC(=O)[C@@H](NC(=O)CNC(=O)[C@H](CCC(=O)O)NC(=O)C(C)(C)NC(=O)[C@@H](N)Cc1ccc(O)cc1)[C@@H](C)O)[C@@H](C)O)[C@@H](C)CC)C(=O)N[C@@H](C)C(=O)N[C@@H](CCC(N)=O)C(=O)N[C@@H](CCCNC(=N)N)C(=O)N[C@@H](C)C(=O)N[C@@H](Cc1ccccc1)C(=O)N[C@H](C(=O)N[C@@H](CCC(=O)O)C(=O)N[C@@H](Cc1c[nH]c2ccccc12)C(=O)N[C@@H](CC(C)C)C(=O)N[C@@H](CC(C)C)C(=O)N[C@@H](C)C(=O)N[C@@H](CCC(N)=O)C(=O)NCC(=O)N1CCC[C@H]1C(=O)N[C@@H](CO)C(=O)N[C@@H](CO)C(=O)NCC(=O)N[C@@H](C)C(=O)N1CCC[C@H]1C(=O)N1CCC[C@H]1C(=O)N1CCC[C@H]1C(=O)N[C@@H](CO)C(N)=O)C(C)C)C(=O)O
B2: Compound 3 (peptide)
peptide: H-Y[Aib]EGTFTSDYSIALDKIAQRAFVNWLVA[Aib]K-NH2
SMILES: CC[C@H](C)[C@H](NC(=O)[C@H](CCCCN)NC(=O)[C@H](CC(=O)O)NC(=O)[C@H](CC(C)C)NC(=O)[C@H](C)NC(=O)[C@@H](NC(=O)[C@H](CO)NC(=O)[C@H](Cc1ccc(O)cc1)NC(=O)[C@H](CC(=O)O)NC(=O)[C@H](CO)NC(=O)[C@@H](NC(=O)[C@H](Cc1ccccc1)NC(=O)[C@@H](NC(=O)CNC(=O)[C@H](CCC(=O)O)NC(=O)C(C)(C)NC(=O)[C@@H](N)Cc1ccc(O)cc1)[C@@H](C)O)[C@@H](C)O)[C@@H](C)CC)C(=O)N[C@@H](C)C(=O)N[C@@H](CCC(N)=O)C(=O)N[C@@H](CCCNC(=N)N)C(=O)N[C@@H](C)C(=O)N[C@@H](Cc1ccccc1)C(=O)N[C@H](C(=O)N[C@@H](CC(N)=O)C(=O)N[C@@H](Cc1c[nH]c2ccccc12)C(=O)N[C@@H](CC(C)C)C(=O)N[C@H](C(=O)N[C@@H](C)C(=O)NC(C)(C)C(=O)N[C@@H](CCCCN)C(N)=O)C(C)C)C(C)C
B3: Compound 31 (peptide)
peptide: H-Y[Aib]EGTFTSDYSIYLDKK([γGlu-C16 diacid])AQRAFVNWLLA[Aib]K-NH2
SMILES: CC[C@H](C)[C@H](NC(=O)[C@H](CO)NC(=O)[C@H](Cc1ccc(O)cc1)NC(=O)[C@H](CC(=O)O)NC(=O)[C@H](CO)NC(=O)[C@@H](NC(=O)[C@H](Cc1ccccc1)NC(=O)[C@@H](NC(=O)CNC(=O)[C@H](CCC(=O)O)NC(=O)C(C)(C)NC(=O)[C@@H](N)Cc1ccc(O)cc1)[C@@H](C)O)[C@@H](C)O)C(=O)N[C@@H](Cc1ccc(O)cc1)C(=O)N[C@@H](CC(C)C)C(=O)N[C@@H](CC(=O)O)C(=O)N[C@@H](CCCCN)C(=O)N[C@@H](CCCCNC(=O)CC[C@H](NC(=O)CCCCCCCCCCCCCCC(=O)O)C(=O)O)C(=O)N[C@@H](C)C(=O)N[C@@H](CCC(N)=O)C(=O)N[C@@H](CCCNC(=N)N)C(=O)N[C@@H](C)C(=O)N[C@@H](Cc1ccccc1)C(=O)N[C@H](C(=O)N[C@@H](CC(N)=O)C(=O)N[C@@H](Cc1c[nH]c2ccccc12)C(=O)N[C@@H](CC(C)C)C(=O)N[C@@H](CC(C)C)C(=O)N[C@@H](C)C(=O)NC(C)(C)C(=O)N[C@@H](CCCCN)C(N)=O)C(C)C
B4: Compound 26 (peptide)
peptide: H-Y[Aib]EGTFTSDYSIYLDKKAQRAFVNWLLAYG[1Nal]LDF-NH2
SMILES: CC[C@H](C)[C@H](NC(=O)[C@H](CO)NC(=O)[C@H](Cc1ccc(O)cc1)NC(=O)[C@H](CC(=O)O)NC(=O)[C@H](CO)NC(=O)[C@@H](NC(=O)[C@H](Cc1ccccc1)NC(=O)[C@@H](NC(=O)CNC(=O)[C@H](CCC(=O)O)NC(=O)C(C)(C)NC(=O)[C@@H](N)Cc1ccc(O)cc1)[C@@H](C)O)[C@@H](C)O)C(=O)N[C@@H](Cc1ccc(O)cc1)C(=O)N[C@@H](CC(C)C)C(=O)N[C@@H](CC(=O)O)C(=O)N[C@@H](CCCCN)C(=O)N[C@@H](CCCCN)C(=O)N[C@@H](C)C(=O)N[C@@H](CCC(N)=O)C(=O)N[C@@H](CCCNC(=N)N)C(=O)N[C@@H](C)C(=O)N[C@@H](Cc1ccccc1)C(=O)N[C@H](C(=O)N[C@@H](CC(N)=O)C(=O)N[C@@H](Cc1c[nH]c2ccccc12)C(=O)N[C@@H](CC(C)C)C(=O)N[C@@H](CC(C)C)C(=O)N[C@@H](C)C(=O)N[C@@H](Cc1ccc(O)cc1)C(=O)NCC(=O)N[C@@H](Cc1cccc2ccccc12)C(=O)N[C@@H](CC(C)C)C(=O)N[C@@H](CC(=O)O)C(=O)N[C@@H](Cc1ccccc1)C(N)=O)C(C)C
B5: Compound 27 (peptide)
peptide: H-Y[Aib]EGTFTSDYSIYLDKKAEKAFVNWLLA[Aib]K-NH2
SMILES: CC[C@H](C)[C@H](NC(=O)[C@H](CO)NC(=O)[C@H](Cc1ccc(O)cc1)NC(=O)[C@H](CC(=O)O)NC(=O)[C@H](CO)NC(=O)[C@@H](NC(=O)[C@H](Cc1ccccc1)NC(=O)[C@@H](NC(=O)CNC(=O)[C@H](CCC(=O)O)NC(=O)C(C)(C)NC(=O)[C@@H](N)Cc1ccc(O)cc1)[C@@H](C)O)[C@@H](C)O)C(=O)N[C@@H](Cc1ccc(O)cc1)C(=O)N[C@@H](CC(C)C)C(=O)N[C@@H](CC(=O)O)C(=O)N[C@@H](CCCCN)C(=O)N[C@@H](CCCCN)C(=O)N[C@@H](C)C(=O)N[C@@H](CCC(=O)O)C(=O)N[C@@H](CCCCN)C(=O)N[C@@H](C)C(=O)N[C@@H](Cc1ccccc1)C(=O)N[C@H](C(=O)N[C@@H](CC(N)=O)C(=O)N[C@@H](Cc1c[nH]c2ccccc12)C(=O)N[C@@H](CC(C)C)C(=O)N[C@@H](CC(C)C)C(=O)N[C@@H](C)C(=O)NC(C)(C)C(=O)N[C@@H](CCCCN)C(N)=O)C(C)C
B6: Compound 24 (peptide)
peptide: H-Y[Aib]EGTFTSDYSIYLDKKAQRAFVNWLL[Aib]K-NH2
SMILES: CC[C@H](C)[C@H](NC(=O)[C@H](CO)NC(=O)[C@H](Cc1ccc(O)cc1)NC(=O)[C@H](CC(=O)O)NC(=O)[C@H](CO)NC(=O)[C@@H](NC(=O)[C@H](Cc1ccccc1)NC(=O)[C@@H](NC(=O)CNC(=O)[C@H](CCC(=O)O)NC(=O)C(C)(C)NC(=O)[C@@H](N)Cc1ccc(O)cc1)[C@@H](C)O)[C@@H](C)O)C(=O)N[C@@H](Cc1ccc(O)cc1)C(=O)N[C@@H](CC(C)C)C(=O)N[C@@H](CC(=O)O)C(=O)N[C@@H](CCCCN)C(=O)N[C@@H](CCCCN)C(=O)N[C@@H](C)C(=O)N[C@@H](CCC(N)=O)C(=O)N[C@@H](CCCNC(=N)N)C(=O)N[C@@H](C)C(=O)N[C@@H](Cc1ccccc1)C(=O)N[C@H](C(=O)N[C@@H](CC(N)=O)C(=O)N[C@@H](Cc1c[nH]c2ccccc12)C(=O)N[C@@H](CC(C)C)C(=O)N[C@@H](CC(C)C)C(=O)NC(C)(C)C(=O)N[C@@H](CCCCN)C(N)=O)C(C)C
B7: Compound 25 (peptide)
peptide: H-Y[Aib]EGTFTSDYSIYLDKKAQRAFVNWLLA[Aib]KYG[1Nal]LDF-NH2
SMILES: CC[C@H](C)[C@H](NC(=O)[C@H](CO)NC(=O)[C@H](Cc1ccc(O)cc1)NC(=O)[C@H](CC(=O)O)NC(=O)[C@H](CO)NC(=O)[C@@H](NC(=O)[C@H](Cc1ccccc1)NC(=O)[C@@H](NC(=O)CNC(=O)[C@H](CCC(=O)O)NC(=O)C(C)(C)NC(=O)[C@@H](N)Cc1ccc(O)cc1)[C@@H](C)O)[C@@H](C)O)C(=O)N[C@@H](Cc1ccc(O)cc1)C(=O)N[C@@H](CC(C)C)C(=O)N[C@@H](CC(=O)O)C(=O)N[C@@H](CCCCN)C(=O)N[C@@H](CCCCN)C(=O)N[C@@H](C)C(=O)N[C@@H](CCC(N)=O)C(=O)N[C@@H](CCCNC(=N)N)C(=O)N[C@@H](C)C(=O)N[C@@H](Cc1ccccc1)C(=O)N[C@H](C(=O)N[C@@H](CC(N)=O)C(=O)N[C@@H](Cc1c[nH]c2ccccc12)C(=O)N[C@@H](CC(C)C)C(=O)N[C@@H](CC(C)C)C(=O)N[C@@H](C)C(=O)NC(C)(C)C(=O)N[C@@H](CCCCN)C(=O)N[C@@H](Cc1ccc(O)cc1)C(=O)NCC(=O)N[C@@H](Cc1cccc2ccccc12)C(=O)N[C@@H](CC(C)C)C(=O)N[C@@H](CC(=O)O)C(=O)N[C@@H](Cc1ccccc1)C(N)=O)C(C)C

These binders were tested against T1, human GIP receptor (human, UniProt P48546 22-466) (assay: cell-based or functional assay).
T1 sequence (looked up): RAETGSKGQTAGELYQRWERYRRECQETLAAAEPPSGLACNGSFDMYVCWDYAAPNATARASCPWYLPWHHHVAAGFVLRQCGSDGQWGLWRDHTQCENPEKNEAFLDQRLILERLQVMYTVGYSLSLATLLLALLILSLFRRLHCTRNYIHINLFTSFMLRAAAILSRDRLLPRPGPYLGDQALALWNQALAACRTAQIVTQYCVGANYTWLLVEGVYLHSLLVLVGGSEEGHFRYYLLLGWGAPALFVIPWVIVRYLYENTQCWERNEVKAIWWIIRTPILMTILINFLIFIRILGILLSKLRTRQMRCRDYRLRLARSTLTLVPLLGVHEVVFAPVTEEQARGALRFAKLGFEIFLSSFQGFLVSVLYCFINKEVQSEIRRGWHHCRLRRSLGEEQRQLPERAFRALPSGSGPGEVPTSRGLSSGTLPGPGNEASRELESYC

| Binder | EC50, cAMP induction in HEK293 cells expressing human GIP R [pM] |
| --- | --- |
| B1 | 12 |
| B2 | 15 |
| B3 | 22 |
| B4 | 800 |
| B5 | 300 |
| B6 | 96 |
| B7 | 120 |

What follows are binders tested against human GLP-1 receptor (human, UniProt P43220 24-463) (assay: cell-based or functional assay).

| Binder | EC50, cAMP induction in HEK293 cells expressing human GLP-1 R [pM] |
| --- | --- |
| B1 | 18 |
| B2 | 22 |
| B3 | 20 |
| B4 | 390 |
| B5 | 74 |
| B6 | 8.5 |
| B7 | 41 |
